{"source": "patent US20090042785A1", "about": "(Pieris, published 2009)", "binders": {"B1": {"name": "hNGAL mutein S140.4-O10 (designed binder)", "chain": "QDSTSDLIPAPPLSKVPLQQNFQDNQFHGKWYVVGLAGNRILRDDQHPMNMYATIYELKEDKSYNVTSVISSHKKCEYTIATFVPGSQPGEFTLGNIKSYGDKTSYLVRVVSTDYNQYAVVFFKLAEDNAEFFAITIYGRTKELASELKENFIRFSKSLGLPENHIVFPVPIDQCIDG", "notes": "also called Onc I-002"}, "B2": {"name": "S140.4-O10-CH4 (fusion with the CH4 domain of the human IgE-Fc portion) (designed binder)", "chain": "QDSTSDLIPAPPLSKVPLQQNFQDNQFHGKWYVVGLAGNRILRDDQHPMNMYATIYELKEDKSYNVTSVISSHKKCEYTIATFVPGSQPGEFTLGNIKSYGDKTSYLVRVVSTDYNQYAVVFFKLAEDNAEFFAITIYGRTKELASELKENFIRFSKSLGLPENHIVFPVPIDQCIDGSTTKTSGPRAAPEVYAFATPEWPGSRDKRTLACLIQNFMPEDISVQWLHNEVQLPDARHSTTQPRKTKGSGFFVFSRLEVTRAEWEQKDEFICRAVHEAASPSQTVQRAVSVNPESSRSGGCSAWSHPQFEK", "modifications": "The molecule is a homodimer formed through the CH4 domain (the patent calls it the CH4-dimer). One copy of the chain is given.", "notes": "Fused for dimerization; CH4 domain between the mutein and the C-terminal Strep tag; also called CH4-dimer"}, "B3": {"name": "S140.4-O10-ABD (fusion with the albumin binding domain of streptococcal protein G) (designed binder)", "chain": "QDSTSDLIPAPPLSKVPLQQNFQDNQFHGKWYVVGLAGNRILRDDQHPMNMYATIYELKEDKSYNVTSVISSHKKCEYTIATFVPGSQPGEFTLGNIKSYGDKTSYLVRVVSTDYNQYAVVFFKLAEDNAEFFAITIYGRTKELASELKENFIRFSKSLGLPENHIVFPVPIDQCIDGSGGAVDANSLAEAKVLANRELDKYGVSDYYKNLINNAKTVEGVKALIDEILAALPSAWSHPQFEK", "notes": "Original linker of protein G between mutein and ABD; also called Onc I-004"}, "B4": {"name": "S140.4-O10 site-directed PEGylated at Cys 87 with 20k PEG (designed binder)", "chain": "QDSTSDLIPAPPLSKVPLQQNFQDNQFHGKWYVVGLAGNRILRDDQHPMNMYATIYELKEDKSYNVTSVISSHKKCEYTIATFVPGCQPGEFTLGNIKSYGDKTSYLVRVVSTDYNQYAVVFFKLAEDNAEFFAITIYGRTKELASELKENFIRFSKSLGLPENHIVFPVPIDQCIDGSAWSHPQFEK", "modifications": "chain 1 pos 87: Cys carrying linear 20 kDa PEG-maleimide, written C", "notes": "also called O10_PEG(20k); S140.4-O10-PEG (20k)"}, "B5": {"name": "S140.4-O10 site-directed PEGylated at Cys 87 with 12k PEG (designed binder)", "chain": "B4 chain", "modifications": "chain 1 pos 87: Cys carrying linear 12k PEG-maleimide on its thiol, written C", "notes": "also called O10_PEG(12k); O10_S87C PEGylated monomer"}, "B6": {"name": "hNGAL mutein S140.4-B16 (designed binder)", "chain": "B1 chain with S71F, S72P, G95S, N96D", "notes": "tagged entry not tied to the name; not shown: N-terminal T7 detection tag from vector phNGAL37; C-terminal Strep-tag II from vector phNGAL37"}, "B7": {"name": "hNGAL mutein S140.1-F09 (designed binder)", "chain": "B1 chain with D114N", "notes": "as for B6"}, "B8": {"name": "hNGAL mutein S140.3-P07 (designed binder)", "chain": "B1 chain with S71F, S72P, N129D", "notes": "as for B6"}, "B9": {"name": "hNGAL mutein S140.2-P24 (designed binder)", "chain": "B1 chain with N50D, N116S", "notes": "as for B6"}, "B10": {"name": "hNGAL mutein F92.1-J08 (designed binder)", "chain": "QDSTSDLIPAPPLSKVPLQQNFQDNQFHGKWYVVGLAGNRILRDDQHPMNMYATIYELKEDKSYNVTSVIFPHKKCEYTIATFVPGSQPGEFTLGNIKSYGDKTSYLVRVVSTNYNQYAVVFFKLAEDNAEFFAITIYGRTKELASELKENFIRFSKSLGLPENHIVFPVPIDQCIDGSAWSHPQF", "notes": "also called CTLA-4-J08"}, "B11": {"name": "S140.4-O10 site-directed PEGylated at Cys 87 with 30k PEG (designed binder)", "chain": "B4 chain", "modifications": "chain 1 pos 87: Cys carrying linear 30 kDa PEG-maleimide, written C", "notes": "also called O10_PEG(30k); S140.4-O10-PEG(30k)"}, "B12": {"name": "S140.4-O10_V84C PEGylated with 12k PEG-maleimide (designed binder)", "chain": "B1 chain with V84C", "modifications": "12k PEG-maleimide on Cys 84", "notes": "also called O10_V84C PEGylated monomer"}, "B13": {"name": "S140.4-O10_E143C PEGylated with 12k PEG-maleimide (designed binder)", "chain": "B1 chain with E143C", "modifications": "12k PEG-maleimide on Cys 143", "notes": "also called O10_E143C PEGylated monomer"}, "B14": {"name": "S140.4-O10_S146C PEGylated with 12k PEG-maleimide (designed binder)", "chain": "B1 chain with S146C", "modifications": "12k PEG-maleimide on Cys 146", "notes": "also called O10_S146C PEGylated monomer"}, "B15": {"name": "S140.4-O10_A145C PEGylated with 12k PEG-maleimide (designed binder)", "chain": "B1 chain with A145C", "modifications": "12k PEG-maleimide on Cys 145", "notes": "also called O10_A145C PEGylated monomer"}, "B16": {"name": "S140.4-O10_T141C PEGylated with 12k PEG-maleimide (designed binder)", "chain": "B1 chain with T141C", "modifications": "12k PEG-maleimide on Cys 141", "notes": "also called O10_T141C PEGylated monomer"}, "B17": {"name": "hNGAL mutein S94.7-Q13 (designed binder)", "chain": "B10 chain with Y118H, V120T", "notes": "also called CTLA-4-Q13"}, "B18": {"name": "control lipocalin hNGAL wt58 (other)", "chain": "QDSTSDLIPAPPLSKVPLQQNFQDNQFHGKWYVVGLAGNAILREDKDPQKMYATIYELKEDKSYNVTSVLFRKKKCDYWIRTFVPGSQPGEFTLGNIKSYPGLTSYLVRVVSTNYNQHAMVFFKKVSQNREYFKITIYGRTKELASELKENFIRFSKSLGLPENHIVFPVPIDQCIDG", "notes": "also called hNGAL-58; hNGAL58"}}, "note": "Positions count from the first letter of the chain named.", "data": [{"molecular_target": "T1, human CTLA-4-Fc (Chimerigen) (human, UniProt P16410 36-161; P01857 99-330 = IgG part, limits assumed)", "T1 construct": "extracellular domain;domain: Fc portion; Bought protein; also called hCTLA-4-Fc; huCTLA-4-Ig", "assay": "SPR-Affinity towards hCTLA-4-Fc", "units": {"Kd": "nM"}, "values": [{"binder": "B1", "Kd": 3.7}, {"binder": "B2", "Kd": 0.8}, {"binder": "B3", "Kd": 8.9}, {"binder": "B4", "Kd": 11}, {"binder": "B5", "Kd": 20}]}, {"molecular_target": "T1, human CTLA-4-Fc (Chimerigen)", "assay": "SPR as in Example 9", "units": {"Kd": "nM", "koff": "s⁻¹", "kon": "M⁻¹ s⁻¹"}, "values": [{"binder": "B1", "Kd": 8.3, "koff": 0.000221, "kon": 15300}, {"binder": "B6", "Kd": 68, "koff": 0.000418, "kon": 6160}, {"binder": "B7", "Kd": 7.8, "koff": "~9.2e-05", "kon": 11800}, {"binder": "B8", "Kd": 29, "koff": 0.000319, "kon": 11000}, {"binder": "B9", "Kd": 20, "koff": 0.00028, "kon": 14000}, {"binder": "B10", "Kd": 12.8, "koff": 0.000116, "kon": 9240}]}, {"molecular_target": "T2, mCTLA-4-Fc (R&D Systems) (mouse, UniProt P09793 36-162)", "T2 sequence (P09793 whole entry)": "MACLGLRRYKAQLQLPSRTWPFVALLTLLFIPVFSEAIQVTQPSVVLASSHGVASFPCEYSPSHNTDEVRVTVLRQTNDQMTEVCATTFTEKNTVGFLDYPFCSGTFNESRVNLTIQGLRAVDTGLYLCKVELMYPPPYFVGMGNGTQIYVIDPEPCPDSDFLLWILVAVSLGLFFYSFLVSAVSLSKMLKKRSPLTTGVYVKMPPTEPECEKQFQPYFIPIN", "assay": "SPR as in Example 9", "units": {"Kd": "nM", "koff": "s⁻¹", "kon": "M⁻¹ s⁻¹"}, "values": [{"binder": "B1", "Kd": 40.8, "koff": 0.00049, "kon": 11900}, {"binder": "B6", "Kd": 112, "koff": 0.00056, "kon": 5000}, {"binder": "B7", "Kd": 27.9, "koff": 0.000379, "kon": 14000}, {"binder": "B8", "Kd": 98, "koff": 0.000666, "kon": 6800}, {"binder": "B9", "Kd": 47, "koff": 0.000705, "kon": 15000}]}, {"molecular_target": "T1, human CTLA-4-Fc (Chimerigen)", "assay": "ELISA towards hCTLA-4-Fc", "units": {"ELISA affinities": "nM"}, "values": [{"binder": "B1", "ELISA affinities": 3.8}, {"binder": "B3", "ELISA affinities": 3.3}, {"binder": "B4", "ELISA affinities": 3.6}, {"binder": "B5", "ELISA affinities": 3.2}, {"binder": "B11", "ELISA affinities": 3}]}, {"molecular_target": "T1, human CTLA-4-Fc (Chimerigen)", "assay": "SPR-Affinity of the PEGylated monomer towards hCTLA-4-Fc", "units": {"Kd": "nM"}, "values": [{"binder": "B12", "Kd": 97}, {"binder": "B13", "Kd": 85}, {"binder": "B14", "Kd": 50}, {"binder": "B15", "Kd": 50}, {"binder": "B16", "Kd": 69}, {"binder": "B5", "Kd": 26}]}, {"molecular_target": "T1, human CTLA-4-Fc (Chimerigen)", "assay": "SPR; KD listed beside Tm", "units": {"Kd": "nM"}, "values": [{"binder": "B1", "Kd": 8.3}, {"binder": "B6", "Kd": 68}, {"binder": "B7", "Kd": 7.8}, {"binder": "B8", "Kd": 29}, {"binder": "B9", "Kd": 20}, {"binder": "B10", "Kd": 12.8}]}, {"molecular_target": "T2, mCTLA-4-Fc (R&D Systems)", "assay": "SPR; KD listed beside Tm", "units": {"Kd": "nM"}, "values": [{"binder": "B1", "Kd": 40.8}, {"binder": "B6", "Kd": 112}, {"binder": "B7", "Kd": 27.9}, {"binder": "B8", "Kd": 98}, {"binder": "B9", "Kd": 47}]}, {"molecular_target": "T1, human CTLA-4-Fc (Chimerigen)", "assay": "competition FACS: HuCTLA4-Ig 10 ug/ml pre-incubated with the antagonist, then staining of P815 cells transfected with human B7.2; blocked ligand B7.2", "units": {"IC50 (read off the curve)": "µg/mL"}, "values": [{"binder": "B17", "IC50 (read off the curve)": "~5"}]}, {"molecular_target": "T3, human CTLA-4 on the cell surface (transfected CHO and A431 cells; CD152-expressing cells of human tonsil) (human, UniProt P16410 36-223)", "T3 construct": "whole, on cells; also called CHO-hCTLA-4; CHO::hCTLA-4", "T3 sequence (looked up)": "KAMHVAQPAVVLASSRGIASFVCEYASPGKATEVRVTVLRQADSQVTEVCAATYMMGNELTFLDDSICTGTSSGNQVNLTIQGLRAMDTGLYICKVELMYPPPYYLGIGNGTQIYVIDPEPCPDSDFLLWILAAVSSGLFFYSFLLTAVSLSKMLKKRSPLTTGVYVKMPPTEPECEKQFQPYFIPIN", "assay": "indirect immunoperoxidase staining of cryosections; column Negative Control Antibody [Isotype-matched hNGALwt_58]", "values": [{"binder": "B18", "binding result": "no binding (tested: 40 µg/mL)"}]}, {"molecular_target": "T1, human CTLA-4-Fc (Chimerigen)", "assay": "SPR, Fc fusion captured via anti-human IgG Fc", "units": {"Kd": "nM", "koff": "s⁻¹", "kon": "M⁻¹ s⁻¹"}, "values": [{"binder": "B17", "Kd": 11.8, "koff": "7.1e-05", "kon": 6000}, {"binder": "B10", "Kd": 12.8, "koff": 0.000116, "kon": 9240}]}, {"molecular_target": "T2, mCTLA-4-Fc (R&D Systems)", "assay": "SPR, Fc fusion captured via anti-human IgG Fc", "units": {"Kd": "nM", "koff": "s⁻¹", "kon": "M⁻¹ s⁻¹"}, "values": [{"binder": "B17", "Kd": 39.5, "koff": 0.00017, "kon": 4300}]}, {"molecular_target": "T1, human CTLA-4-Fc (Chimerigen)", "assay": "Affinity-ELISA of the PEGylated monomer towards hCTLA-4-Fc", "units": {"ELISA-Affinity PEGylated Monomer": "nM"}, "values": [{"binder": "B12", "ELISA-Affinity PEGylated Monomer": 100}, {"binder": "B13", "ELISA-Affinity PEGylated Monomer": 103}, {"binder": "B14", "ELISA-Affinity PEGylated Monomer": 100}, {"binder": "B15", "ELISA-Affinity PEGylated Monomer": 74}, {"binder": "B16", "ELISA-Affinity PEGylated Monomer": 82}, {"binder": "B5", "ELISA-Affinity PEGylated Monomer": 52}]}, {"molecular_target": "T1, human CTLA-4-Fc (Chimerigen)", "assay": "competition FACS: 2.5 nM human CTLA-4 Fc pre-incubated with the antagonist, then staining of Raji cells; % inhibition of CTLA-4 Fc binding; blocked ligands B7.1 and B7.2", "units": {"IC50 (read off the curve)": "nM"}, "values": [{"binder": "B1", "IC50 (read off the curve)": "~2"}, {"binder": "B3", "IC50 (read off the curve)": "~4"}, {"binder": "B4", "IC50 (read off the curve)": "~4"}]}]}
